Measured values taken from article PMC2756588.

T1: Bzz1-1, P38822
T1 sequence (P38822 478-572, looked up): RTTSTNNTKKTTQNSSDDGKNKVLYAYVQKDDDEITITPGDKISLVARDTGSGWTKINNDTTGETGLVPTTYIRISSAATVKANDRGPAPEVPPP

T2: Cyk3, Q07533
T2 sequence (Q07533 1-83, looked up): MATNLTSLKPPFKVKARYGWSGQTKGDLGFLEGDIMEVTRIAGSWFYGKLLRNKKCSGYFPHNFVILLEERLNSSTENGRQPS

T3: Hof1, Q05080
T3 sequence (Q05080 590-669, looked up): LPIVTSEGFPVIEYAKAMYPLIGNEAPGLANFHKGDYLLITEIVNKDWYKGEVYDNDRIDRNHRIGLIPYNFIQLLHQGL

T4: Pex13, P80667
T4 sequence (P80667 295-386, looked up): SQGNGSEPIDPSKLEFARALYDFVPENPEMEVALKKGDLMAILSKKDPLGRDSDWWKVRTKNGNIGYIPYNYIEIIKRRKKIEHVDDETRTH

T5: Boi1, P38041
T5 sequence (P38041 1-86, looked up): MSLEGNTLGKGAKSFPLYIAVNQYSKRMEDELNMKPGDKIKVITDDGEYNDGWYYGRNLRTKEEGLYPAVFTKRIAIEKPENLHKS

T6: Pin3, Q06449
T6 sequence (Q06449 53-122, looked up): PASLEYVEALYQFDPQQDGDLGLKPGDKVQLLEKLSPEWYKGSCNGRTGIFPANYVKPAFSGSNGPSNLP

T7: Lsb4, P32793
T7 sequence (P32793 402-468, looked up): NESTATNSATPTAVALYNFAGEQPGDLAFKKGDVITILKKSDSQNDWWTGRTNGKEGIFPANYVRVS

T8: Bbc1, P47068
T8 sequence (P47068 1-78, looked up): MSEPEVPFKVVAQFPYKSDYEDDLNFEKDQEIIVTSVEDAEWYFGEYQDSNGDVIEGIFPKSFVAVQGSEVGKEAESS

T9: Hse1, P38753
T9 sequence (P38753 208-285, looked up): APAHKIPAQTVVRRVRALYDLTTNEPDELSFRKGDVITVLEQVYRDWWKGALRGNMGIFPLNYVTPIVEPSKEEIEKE

T10: Myo5, Q04439
T10 sequence (Q04439 1072-1160, looked up): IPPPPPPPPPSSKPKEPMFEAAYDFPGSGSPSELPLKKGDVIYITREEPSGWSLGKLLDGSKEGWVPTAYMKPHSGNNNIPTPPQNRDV

T11: Sla1-2, P32790
T11 sequence (P32790 60-140, looked up): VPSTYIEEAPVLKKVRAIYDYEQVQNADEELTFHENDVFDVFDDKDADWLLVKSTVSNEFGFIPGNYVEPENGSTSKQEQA

T12: Boi2, P39969
T12 sequence (P39969 32-116, looked up): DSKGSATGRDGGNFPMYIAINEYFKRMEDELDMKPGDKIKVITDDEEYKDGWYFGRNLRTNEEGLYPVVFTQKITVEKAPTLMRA

T13: Bud14, P27637
T13 sequence (P27637 247-328, looked up): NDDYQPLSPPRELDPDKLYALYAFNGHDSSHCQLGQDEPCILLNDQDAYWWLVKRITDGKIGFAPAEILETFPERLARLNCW

T14: Lsb1, P53281
T14 sequence (P53281 45-122, looked up): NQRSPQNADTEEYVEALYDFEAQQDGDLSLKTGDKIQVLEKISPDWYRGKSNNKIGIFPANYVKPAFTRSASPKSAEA

T15: Fus1, P11710
T15 sequence (P11710 432-512, looked up): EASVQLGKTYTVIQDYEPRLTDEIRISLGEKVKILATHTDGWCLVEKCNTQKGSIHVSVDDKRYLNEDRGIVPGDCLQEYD

T16: Cdc25, P04821
T16 sequence (P04821 50-136, looked up): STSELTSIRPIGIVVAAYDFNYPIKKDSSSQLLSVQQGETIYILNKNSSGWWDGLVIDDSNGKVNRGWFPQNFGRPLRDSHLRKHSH

T17: Abp1, P15891
T17 sequence (P15891 535-592, looked up): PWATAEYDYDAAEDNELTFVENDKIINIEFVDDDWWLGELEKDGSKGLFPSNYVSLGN

T18: Lsb3, P43603
T18 sequence (P43603 385-451, looked up): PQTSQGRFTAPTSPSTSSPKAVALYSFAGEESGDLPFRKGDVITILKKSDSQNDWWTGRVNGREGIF

T19: Sla1-3, P32790
T19 sequence (P32790 344-424, looked up): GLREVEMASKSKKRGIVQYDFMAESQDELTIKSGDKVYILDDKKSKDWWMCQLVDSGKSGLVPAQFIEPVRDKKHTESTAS

T20: Nbp2, Q12163
T20 sequence (Q12163 103-180, looked up): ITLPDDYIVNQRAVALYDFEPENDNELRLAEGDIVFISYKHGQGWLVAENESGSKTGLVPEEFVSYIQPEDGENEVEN

T21: Bzz1-2, P38822
T21 sequence (P38822 568-633, looked up): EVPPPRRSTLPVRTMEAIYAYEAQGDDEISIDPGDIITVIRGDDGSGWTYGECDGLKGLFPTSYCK


Legend:
Assay in all cases: SPOT array
Sho1, P40073 = details: median of control spots 1148
Bzz1-1, P38822 = molecular target: T1, Bzz1-1, P38822; details: median of control spots 4446
Cyk3, Q07533 = molecular target: T2, Cyk3, Q07533; details: median of control spots 1451
Hof1, Q05080 = molecular target: T3, Hof1, Q05080; details: median of control spots 4086
Pex13, P80667 = molecular target: T4, Pex13, P80667; details: median of control spots 1341
Boi1, P38041 = molecular target: T5, Boi1, P38041; details: median of control spots 1162
Pin3, Q06449 = molecular target: T6, Pin3, Q06449; details: median of control spots 2171
Lsb4, P32793 = molecular target: T7, Lsb4, P32793; details: median of control spots 397
Bbc1, P47068 = molecular target: T8, Bbc1, P47068; details: median of control spots 796
Hse1, P38753 = molecular target: T9, Hse1, P38753; details: median of control spots 1727
Myo5, Q04439 = molecular target: T10, Myo5, Q04439; details: median of control spots 471
Bem1-1, P29366 = details: median of control spots 4282
Sla1-2, P32790 = molecular target: T11, Sla1-2, P32790; details: median of control spots 712
Boi2, P39969 = molecular target: T12, Boi2, P39969; details: median of control spots 1161
Myo3, P36006 = details: median of control spots 468
Bem1-2, P29366 = details: median of control spots 4347
Bud14, P27637 = molecular target: T13, Bud14, P27637; details: median of control spots 956
Lsb1, P53281 = molecular target: T14, Lsb1, P53281; details: median of control spots 388
Fus1, P11710 = molecular target: T15, Fus1, P11710; details: median of control spots 1200
Cdc25, P04821 = molecular target: T16, Cdc25, P04821; details: median of control spots 969
Abp1, P15891 = molecular target: T17, Abp1, P15891; details: median of control spots 935
Rvs167, P39743 = details: median of control spots 2707
Lsb3, P43603 = molecular target: T18, Lsb3, P43603; details: median of control spots 406
Sla1-3, P32790 = molecular target: T19, Sla1-3, P32790; details: median of control spots 5475
Nbp2, Q12163 = molecular target: T20, Nbp2, Q12163; details: median of control spots 357
Bzz1-2, P38822 = molecular target: T21, Bzz1-2, P38822; details: median of control spots 4538
GST = details: median of control spots 978

Sho1, P40073, sequence (P40073 287-367): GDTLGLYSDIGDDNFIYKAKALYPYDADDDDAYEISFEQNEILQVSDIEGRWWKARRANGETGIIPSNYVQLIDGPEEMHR
Bem1-2, P29366, sequence (P29366 139-227): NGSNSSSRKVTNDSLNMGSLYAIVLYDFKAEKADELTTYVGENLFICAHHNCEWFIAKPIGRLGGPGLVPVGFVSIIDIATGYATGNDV
Bem1-1, P29366, sequence (P29366 55-141): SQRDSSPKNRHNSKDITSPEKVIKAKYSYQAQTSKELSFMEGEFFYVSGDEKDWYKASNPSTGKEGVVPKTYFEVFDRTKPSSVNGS
Rvs167, P39743, sequence (P39743 419-482): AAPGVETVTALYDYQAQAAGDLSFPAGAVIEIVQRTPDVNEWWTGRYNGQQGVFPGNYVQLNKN

| SPOT intensity (Sho1, P40073) | SPOT intensity (Bzz1-1, P38822) | SPOT intensity (Cyk3, Q07533) | SPOT intensity (Hof1, Q05080) | SPOT intensity (Pex13, P80667) | SPOT intensity (Boi1, P38041) | SPOT intensity (Pin3, Q06449) | SPOT intensity (Lsb4, P32793) | SPOT intensity (Bbc1, P47068) | SPOT intensity (Hse1, P38753) | SPOT intensity (Myo5, Q04439) | SPOT intensity (Bem1-1, P29366) | SPOT intensity (Sla1-2, P32790) | SPOT intensity (Boi2, P39969) | SPOT intensity (Myo3, P36006) | SPOT intensity (Bem1-2, P29366) | SPOT intensity (Bud14, P27637) | SPOT intensity (Lsb1, P53281) | SPOT intensity (Fus1, P11710) | SPOT intensity (Cdc25, P04821) | Binder | other results |
| --- | --- | --- | --- | --- | --- | --- | --- | --- | --- | --- | --- | --- | --- | --- | --- | --- | --- | --- | --- | --- | --- |
| 15 | 0 | 0 | 0 | 1 | 0 | 7 | 0 | 2 | 2 | 1 | 0 | 0 | 0 | 0 | 0 | 1 | 1210 | 0 | 0 | LYKRKPILLPDPKPL | SPOT intensity (Abp1, P15891): 43; SPOT intensity (Rvs167, P39743): 0; SPOT intensity (Lsb3, P43603): 0; SPOT intensity (Sla1-3, P32790): 0; SPOT intensity (Nbp2, Q12163): 1; SPOT intensity (Bzz1-2, P38822): 0; SPOT intensity (GST): 2 |
| 0 | 0 | 2 | 2750 | 172 | 0 | 28 | 513 | 109 | 368 | 25 | 0 | 0 | 0 | 26 | 2 | 0 | 176 | 0 | 0 | NSVPIMPTLPPRPYI | SPOT intensity (Abp1, P15891): 14; SPOT intensity (Rvs167, P39743): 157; SPOT intensity (Lsb3, P43603): 242; SPOT intensity (Sla1-3, P32790): 0; SPOT intensity (Nbp2, Q12163): 0; SPOT intensity (Bzz1-2, P38822): 0; SPOT intensity (GST): 1 |
| 0 | 8 | 0 | 9 | 86 | 849 | 7 | 325 | 151 | 0 | 6 | 1 | 442 | 1280 | 22 | 6 | 0 | 39 | 0 | 0 | PVLPPPRSPNRPTLS | SPOT intensity (Abp1, P15891): 133; SPOT intensity (Rvs167, P39743): 6; SPOT intensity (Lsb3, P43603): 102; SPOT intensity (Sla1-3, P32790): 6; SPOT intensity (Nbp2, Q12163): 0; SPOT intensity (Bzz1-2, P38822): 9; SPOT intensity (GST): 1 |
| 17 | 0 | 0 | 0 | 1 | 0 | 5 | 2 | 12 | 0 | 0 | 2 | 0 | 0 | 0 | 0 | 0 | 313 | 0 | 0 | PSRRAPLQLPQLVNK | SPOT intensity (Abp1, P15891): 45; SPOT intensity (Rvs167, P39743): 0; SPOT intensity (Lsb3, P43603): 0; SPOT intensity (Sla1-3, P32790): 0; SPOT intensity (Nbp2, Q12163): 0; SPOT intensity (Bzz1-2, P38822): 0; SPOT intensity (GST): 1 |
